# Laboratory results published in patent US20050107585A1 (UNIVERSITY OF KANSAS, published 2005).
# Where no end group is shown, it is not given here. [ ]: non-standard residue; d: D form. Ahx = NCCCCCC(=O)O
# Experiments:
# [1] = biological target: T1, ICAM-1 on NOD mouse APC / spleen cells (mouse (NOD), UniProt P13597 28-537); assay: co-capping, fluorescence microscopy, T-depleted spleenocytes of NOD mice given the BPI i.v.
# T1 construct: whole, on cells; Native ICAM-1 on live NOD spleen cells
# T1 sequence (P13597 28-537): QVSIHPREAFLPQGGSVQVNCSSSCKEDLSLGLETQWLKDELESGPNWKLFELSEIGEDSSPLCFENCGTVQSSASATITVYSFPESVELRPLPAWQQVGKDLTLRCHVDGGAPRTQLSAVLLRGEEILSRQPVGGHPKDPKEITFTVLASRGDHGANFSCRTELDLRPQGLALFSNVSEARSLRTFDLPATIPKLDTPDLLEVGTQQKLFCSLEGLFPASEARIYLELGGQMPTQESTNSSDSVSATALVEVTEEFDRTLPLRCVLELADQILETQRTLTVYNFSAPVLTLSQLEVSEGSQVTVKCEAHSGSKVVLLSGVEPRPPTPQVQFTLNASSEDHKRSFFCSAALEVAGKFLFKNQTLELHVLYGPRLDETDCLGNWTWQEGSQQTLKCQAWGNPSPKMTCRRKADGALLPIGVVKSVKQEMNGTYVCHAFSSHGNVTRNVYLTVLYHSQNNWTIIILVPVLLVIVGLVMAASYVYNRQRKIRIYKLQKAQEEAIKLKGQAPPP
# Protocol: To test the ability of the BPI peptide to link MHC-II and ICAM-1 molecules on the APC surface, we used a modification of a co-capping experiment originally described for monoclonal antibodies. […] Antibody-bound cells are then incubated with streptavidin (37 C×15 min.) to cap the MHC-II molecules on the APC surface. The cells were transferred to ice and labeled with a fluorescent (PE) monoclonal antibody to ICAM-1 (3E2). The cells are plated and observed for evidence that a given BPI links ICAM-1 into the MHC-II cap, i.e., by standard fluorescence microscopy and image analysis.
# [2] = biological target: T1, ICAM-1 on NOD mouse APC / spleen cells; assay: flow cytometry on live APC, blocking by mAb
# Protocol: J. Immunol. 2337-2344 (1994). Spleen cell density-gradient fractions from normal (unimmunized) NOD, BALB/c and other MHC congenic strains were incubated in round bottom 96-well plates with increasing concentrations of individual biotinylated peptides at 37° C.,5% CO₂ for 16 hours. Following binding of the BPI to the APC, Avidin-FITC was incubated with the cells on ice for 30 minutes, followed bybiotinylated anti-Avidin for 1 hour, then again with Avidin-FITC. For BPI titrations, increasing concentrations (0.1-100 μM) of the biotinylated derivatives in sterile 0.5% BSA-PBS were incubated with the APC for 16 hours as above.
# To test for competitive inhibition of BPI binding with unlabeled peptides or monoclonal antibodies to MHC-II and ICAM-1 on live APC, freshly isolated fractions of spleen cells were incubated with the previously biotinylated BPI. However, for this portion of the experiment, the experimental wells contained various unlabeled peptides (e.g., antigenic peptides or LFA-1 peptides), and/or monoclonal antibody (e.g., anti-MHC-II or anti-ICAM-1 mAb) inhibitors. Negative selection methods with monoclonal antibodies conjugated to magnetic particles were used to enrich the spleen cell fractions for B cells, macrophages, or dendritic cells as well as to examine differences in BPI binding to these different populations. […]
Binder,binding result [1],binding result [2]
"EIAPVFVLLE[Ahx]G[Ahx]G[Ahx]ITDGEATDSG (also called diabetes BPI) [EGAD-BPI (GAD65(208-217)-[Ac-G-Ac-G-Ac]-CD11a (237-247)), unlabeled]",binds,–
"EIAPVFVLLE[Ahx]G[Ahx]G[Ahx]ITDGEATDSG (also: biotinylated with NHS-Biotin, site not given here, also called diabetes BPI; GAD 65 BPI) [biotinylated EGAD-BPI (GAD65(208-217)-[Ac-G-Ac-G-Ac]-CD11a (237-247))]",–,binds
